Assays:
[1] = test system: Sf9 ovarian cell line of Spodoptera frugiperda; format: cell-based
Source text: Using insect cell lines toxicity testing and mechanism of action research of insecticides, as a new detection method, has the advantages of good target homogeneity, easy control of experimental conditions, and low screening costs compared to traditional bioassay methods. It is suitable for toxicological research of insecticidally active substances. In recent years, scholars at home and abroad have conducted extensive research on the activity of plant natural active ingredients on insect cells, and have achieved many research results of the action mechanism of plant natural active ingredients on insect cells, showing a good correlation between experimental results and in vivo toxicity testing and field experiments.
Fluorescence staining experiment: toxic effect of GhJAZ protein on Sf9 cell line (CL-0205, Procell) was detected using a Calcein/PI Cell Viability and Cytotoxicity Detection kit (Catalogue No.: C2015L, Beyotime, China). The Calcein/PI Cell Activity and Cytotoxicity Detection Kit is a very convenient kit for detecting the viability of animal cells based on Calcein AM (Calcein AM) and PI (Propidium Iodide) dual fluorescence staining. The specific steps are as follows: Adherent cells were blown and transferred to a 15 mL EP tube, centrifuged at 860-870 rpm for 5 minutes. […] After 30 minutes of culture, fluorescence microscopy images were taken. […]

SfAPN4 = test: Yeast two-hybrid (Y2H) interaction with SfAPN4; format: binding, Spodoptera frugiperda; conditions: Y2HGold yeast, quadruple dropout medium, FIG. 4B
Source text: DNA fragments shown in PGADT7::GhJAZ8 (SEQ ID No. 3), PGADT7::GhJAZ8^LGK (SEQ ID No. 25), PGADT7::GhJAZ13 (SEQ ID No. 8), PGADT7::GhJAZ14 (SEQ ID No. 10), PGADT7::GhJAZ24 (SEQ ID No. 12), PGADT7::GhJAZ27 (SEQ ID No. 14) and PGADT7::GhJAZ28 (SEQ ID No. 16) were inserted between the BamH1 and EcoR1 of a PGADT7 plasmid (Unibio Biotech, VT1639), respectively, to obtain pGADT7+GhJAZ8, pGADT7+GhJAZ8^LGK, pGADT7+GhJAZ13, pGADT7+GhJAZ14, pGADT7+GhJAZ24, pGADT7+GhJAZ27 and pGADT7+GhJAZ28.
The DNA fragment shown in PGBKT7: SfAPN4 (SEQ ID NO: 22) was inserted between BamH1 and EcoR1 of a pGBKT7 plasmid (Unibio Biotech, catalog number: VT1638), to obtain a vector plasmid, named pGBKT7+SfAPN4.
The mixture was centrifuged at 5000 rpm for 30 seconds to discard the supernatant, and the pellet was resuspended in ddH2O, coated on a double dropout medium (SD/-Leu/-Trp) and cultured at 28° C. for 2 days. After occurrence of the clonal plaques, the clones were selected and placed a quadruple dropout medium (SD Ade/-His/-Leu/-Trp, with Aba and X-α-gal added) and the interaction was observed after 4 days of culture at 28° C.

[2] = test system: fall armyworm (Spodoptera frugiperda); test: Feed film-covering bioassay, larval growth inhibition, fall armyworm; format: in vivo; conditions: protein on artificial feed, after 7 days, FIGS. 6C, 6E
Method: (§1) Treatment group: add the prepared insect feed (Henan Jiyuan Baiyun Industrial Co., Ltd., product name: Grassland armyworm artificial feed) to a 24 well plate, with a volume of 200 microliters per well; use a film covering method to add diluted GhJAZ8 protein solutions of different concentrations (diluted with PBS) to the surface of the feed, and shake in the incubator until the protein is immersed in the culture medium. Take grassland armyworm and cotton bollworm larvae that have not been fed within the first 12 hours of incubation as experimental subjects, and place them in a culture box, with each concentration of protein applied to 100 larvae. Set 16 replicates for each protein concentration and 3 parallel measurement groups for each dose. Control group: different from the experimental group, PBS solution was added to the surface of the feed using a film covering method, and the rest were the same. After 7 days, age and weight will be recorded for statistical analysis. [formula]

[3] = test system: cotton bollworm (Helicoverpa armigera); test: Feed film-covering bioassay, larval growth inhibition, cotton bollworm; format: in vivo; conditions: protein on artificial feed, after 7 days, FIGS. 6D, 6F
Method: as §1

Sequence of SfAPN4 (as listed by the source): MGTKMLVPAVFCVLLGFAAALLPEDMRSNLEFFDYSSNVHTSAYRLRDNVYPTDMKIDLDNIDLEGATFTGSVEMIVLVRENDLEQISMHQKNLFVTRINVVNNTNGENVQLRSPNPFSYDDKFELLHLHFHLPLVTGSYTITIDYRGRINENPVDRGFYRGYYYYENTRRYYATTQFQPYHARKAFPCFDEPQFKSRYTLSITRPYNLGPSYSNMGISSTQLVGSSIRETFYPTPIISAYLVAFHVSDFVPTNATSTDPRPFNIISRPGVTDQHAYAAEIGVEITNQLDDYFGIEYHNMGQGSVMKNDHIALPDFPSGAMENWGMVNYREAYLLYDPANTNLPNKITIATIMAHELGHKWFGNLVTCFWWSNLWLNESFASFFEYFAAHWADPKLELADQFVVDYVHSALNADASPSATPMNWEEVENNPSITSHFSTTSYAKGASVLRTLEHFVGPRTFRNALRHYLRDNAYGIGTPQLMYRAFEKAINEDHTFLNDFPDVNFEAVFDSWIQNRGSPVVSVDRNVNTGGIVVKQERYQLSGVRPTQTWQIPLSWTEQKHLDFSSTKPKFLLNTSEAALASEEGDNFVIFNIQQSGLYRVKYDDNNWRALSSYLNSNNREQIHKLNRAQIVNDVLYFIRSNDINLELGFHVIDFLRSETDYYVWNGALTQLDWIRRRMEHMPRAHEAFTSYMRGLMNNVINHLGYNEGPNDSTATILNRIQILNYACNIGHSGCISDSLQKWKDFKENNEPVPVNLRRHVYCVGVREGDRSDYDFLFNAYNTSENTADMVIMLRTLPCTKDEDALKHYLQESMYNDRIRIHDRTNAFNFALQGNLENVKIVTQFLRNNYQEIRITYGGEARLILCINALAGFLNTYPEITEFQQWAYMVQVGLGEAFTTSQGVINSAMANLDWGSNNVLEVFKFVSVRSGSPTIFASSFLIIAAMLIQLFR

Row | Molecule | cytotoxicity on Sf9 cells [1] | interaction with SfAPN4 (Y2H) (SfAPN4) | growth inhibition of fall armyworm larvae [2] | growth inhibition of cotton bollworm larvae [3]
1 | GhJAZ16: cotton JAZ protein, SEQ ID NO: 5, expressed from pET-30a-GhJAZ16 (protein) MERDFIGLRSKNAAITIKVEPSNAQPDDSVLLRGSGMQLSFSNKVSTVPQFLSFDGARDDKPRKATHDTLLSSGFMTIPAADSNKKPHPGLTQKQGGNHYAATTYGLQQLDGHQSRLSHEARIFPSSSQPNHTITVSMNTPLLQPHLASPGQNIIGHTINPQPFTGVPIMAAPVSVVPPSSPIIGTTDLRNAAKSSRAPAQLTIFYAGSVCVYDDVSPDKAQAIMLLAGNVSSTTQSKTAPVTQPQTHIPRPCTLSPFSGLPNHLSVTSHVSLQPVAGSSGTNELTAATRIGALASTNNQPDPPKLVNPAVAVPQARKASLARFLEKRKERVSNTSPYNICKRSESGPLASDGISFSVTSAGSSPLQAIN | certain cytotoxic effects | – | – | –
2 | GhJAZ8^LGK: GhJAZ8 with NGR domain mutated, N43G44R45 to L43G44K45, coding sequence SEQ ID No. 25 (protein) MRRNCNLELRLLPSSYPSDSHDMMEERIESPKTQQQQLTIFYLGKVCVSDVTELQAKAILMLANRERDERMKSPTGWEPVSPTLKSQVKCPNTALSMKRSLQRFLQKRKTRIQATSPYH | – | loses interaction | weakened | weakened
3 | GhJAZ5: cotton JAZ protein, SEQ ID NO: 1, expressed in E. coli from pET-30a-GhJAZ5 (protein) MSSCSESTAMKPARSPEKPSFAQTCNLLSQYLKEKGSFGDLSLGMTCNVEANGTPVVPPPTMNLFPLNDKSDDVCGRNGGNPKNLTSMDLFPQQAGLASKDDSPNKLEPQTAPMTIFYGGQVIVFNDFPANKAKEIMLLASNSSSQSNNSFNPIPFTSSIARSPIESSIGVPPTSKPVHPAQRAVPGDLPIARRASLHRFLEKRKDRITAKAPYQINNSAAAPSLSGDNKSWLGLAAQSP | certain cytotoxic effects | – | – | –

From US20250197882A1, “USE OF JAZ PROTEIN AND ITS DERIVATIVES IN AGRICULTURAL PEST PREVENTION AND CONTROL” (priority 2022, published 2025)
